US20250197503A1, “ANTI-HUMAN PD-Ll AND TLR7 DOUBLE-TARGETING NANOBODY CONJUGATE DRUG AND USE THEREOF IN RESISTING TUMOR” (SHANGHAI INSTITUTE OF MATERIA MEDICA , CHINESE ACADEMY OF …, priority 2022, published 2025)

Columns and labels:
[1] = target: T1, PD-L1 (Homo sapiens, UniProt Q9NZQ7); test: Binding of candidate nanobodies to human PD-L1 on HEK293T/hPD-L1 cells, flow cytometry; set-up: expressed in transfected cells; host or cells: HEK293T; conditions: nanobody 10 μg/ml, FIG. 1
Protocol: The stably transfected cell line HEK293T/hPD-L1 was digested and centrifuged, and the supernatant was removed. The cells were washed once with PBS and the cell density was adjusted to 2.5×10^6 cells/mL. 100 μL of cell suspension was added to each cell sample, i.e., 2.5×10^5 cells/sample. Different anti-human PD-L1 candidate nanobodies (at a concentration of 10 μg/ml) were added into the samples. The samples were incubated in a 4° C. refrigerator for 20 min and then centrifuged to remove the supernatant, and washed once with PBS. The diluted antibody anti-human IgG Fc (FITC) was used as a secondary antibody to resuspend the above cells. The abtained samples were incubated in a 4° C. refrigerator for 20 min and centrifuged to remove the supernatant. The cells were washed twice with PBS, transferred to a flow tube; and detected on a flow cytometer to obtain the binding activity of the candidate nanobody with human PD-L1, as shown in FIG. 1.

[2] = target: T2, human PD-1/PD-L1 (Homo sapiens, UniProt Q9NZQ7); test: Blocking of human PD-1/PD-L1 binding on HEK293T/hPD-L1 cells, single concentration, flow cytometry; conditions: nanobody 10 μg/ml, human PD-1-his 1 μg/mL, FIG. 2
T2 construct: expressed in transfected cells; host or cells: HEK293T
Protocol: The stably transfected cell line HEK293T/hPD-L1 was digested and centrifuged to remove the supernatant. The cells were washed once with PBS and the cell density was adjusted to 2.5×10^6 cells/mL. 100 μL of cell suspension was added to each cell sample, i.e., 2.5×10^5 cells/sample. The human PD-1-his protein (at a concentration of 1 μg/mL) and candidate anti-human PD-L1 nanobodies (at a concentration of 10 μg/ml) were added to the samples respectively. The abtained samples were incubated in a refrigerator at 4° C. for 20 min and centrifuged to remove the supernatant. The obtained samples were washed once with PBS. The diluted antibody anti-his-APC was used as the secondary antibody to resuspend the above cells. The cells were incubated in a refrigerator at 4° C. for 20 min and centrifuged to remove the supernatant. The cells were washed twice with PBS, transferred to a flow tube; and detected by flow cytometry.

[3] = target: T2, human PD-1/PD-L1; test: IC50 of blocking human PD-1/PD-L1 binding on HEK293T/hPD-L1 cells, flow cytometry; conditions: FIG. 3; for IC50 activity in blocking human PD-1/PD-L1 binding, compared with KN035: human PD-1-his 1 μg/mL
Protocol: The cell samples were prepared by digesting the stably transfected cell line HEK293T/hPD-L1. Different concentrations of nanobodies h_Nb1 or h_Nb2 or positive control antibody KN035 (sequence from the IMGT database) and human PD-1-his protein (concentration of 1 μg/mL) were added to the samples. After incubation and centrifugation, anti-his-APC was used as the secondary antibody for incubation and staining; and then the flow cytometer was used for detection to obtain the IC50 value of the candidate nanobody in blocking the binding of human PD-1/PD-L1, as shown in FIG. 3.

[4] = test system: CT26/hPD-L1 tumor; test: In vivo anti-tumor activity in CT26/hPD-L1 tumor model; set-up: species or system BALB/c mice with dual humanization of PD-1/PD-L1; conditions: 10 mg/kg intraperitoneal, 6 administrations D0-D16, tumors dissected on Day 17
Protocol: To further evaluate the in vivo anti-tumor activity of anti-human PD-L1 and TLR7 dual-targeting nanobody conjugates, the CT26/hPD-L1 tumor model established by using BALB/c mice with dual humanization of PD-1/PD-L1 targets was used. When the average tumor volume reached 80-100 mm^3, the mice were randomly divided into 6 groups according to the tumor volume, with 6 mice in each group; the day of grouping was defined as DO, and the drugs were administered on DO, D3, D7, D10, D13, and D16, for a total of 6 times, with a dose of 10 mg/kg by intraperitoneal administration. The tumor size was measured 2-3 times a week, and the tumor growth curve was plotted.

[5] = target: T1, PD-L1; test: Affinity of affinity-matured nanobodies to PD-L1 compared with the original antibodies; assay type: binding; conditions: relative to original antibody (h_Nb1 VHH or h_Nb2 VHH)
From the text: The full-length amino acid sequences of preferred nanobodies that specifically bind to human PD-L1 in the above examples (SEQ ID No. 1 and SEQ ID No. 5) were annotated with the CCG method for the antibody CDR and FR regions. Suitable FR and CDR region templates were selected by antibody homology modeling to construct and select the optimal nanobody three-dimensional protein structure. The crystal structure of human PD-L1 protein was obtained from the PDB protein database. A preferred candidate library of PD-L1 nanobody-PD-L1 protein complex structures was obtained by protein complex homology modeling and protein-protein molecular docking methods. Based on the PD-1/PD-L1 in vitro competitive binding characteristics of the preferred antibodies, a suitable docking angle was selected to determine the optimal docking conformation. The key interaction sites of the selected nanobody-PD-L1 protein complex structure were analyzed, with attention paid to Van Der Waals forces, hydrogen bonds, ionic bonds, hydrophobic interactions, etc. The pairs of action sites with low affinity energy values between the nanobodies and the action sites on PD-L1 were focused on as affinity maturation point mutation objects. […] Finally, the affinity maturation scheme of the CDR regions of the preferred antibodies was determined, and the sequences of the antibodies after affinity maturation were SEQ ID NO. […]

T1 sequence (Q9NZQ7 19-290): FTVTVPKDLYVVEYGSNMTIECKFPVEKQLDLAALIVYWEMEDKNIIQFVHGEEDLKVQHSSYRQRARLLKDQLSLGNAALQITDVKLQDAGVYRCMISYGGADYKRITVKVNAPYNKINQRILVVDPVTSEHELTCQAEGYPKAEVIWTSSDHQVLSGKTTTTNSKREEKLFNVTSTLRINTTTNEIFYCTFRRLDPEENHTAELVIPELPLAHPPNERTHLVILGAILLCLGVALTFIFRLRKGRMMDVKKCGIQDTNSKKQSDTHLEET
T2 sequence (Q9NZQ7 19-290): as above

Molecule | binding activity to human PD-L1 [1] | further results
h_Nb5: anti-human PD-L1 nanobody, VHH SEQ ID NO: 13 (protein, h_Nb5 VHH) VHH: DVQLQESGGGAVQSGESLRLSCAASGRDLMFYDVAWFRQAPGKEREGVSYIRSSGTLTKYADSVKGRFTISRDNDKNTVSLQMNSLNPEDTAKYYCAARLQSATSHSDLREDEFNSWGQGTQVTVSS | good binding activity | –
h_Nb13: anti-human PD-L1 nanobody, VHH SEQ ID NO: 28 (protein, h_Nb13 VHH) VHH: DVQLQESGGGLVQPGGSLRLSCAASGSIFSINAMGWYRQAPGKSRELVAAITSGGSTNYADSVKGRFTISRDTAKNTVYLLMNSLEPEDTAVYYCNVERRRPPHYLSEYDFDWGQGTQVTVSS | good binding activity | –
h_Nb26: anti-human PD-L1 nanobody, VHH SEQ ID NO: 36 (protein, h_Nb26 VHH) VHH: DVQLQESGGGLVQPGGSLRLSCAAPGSIFRINAMGWYRQAPGKQRELVAAITSGGSTNYADSVQGRFTISRDNAKNTVYLQMNSLKPEDTAVYYCNVERRRPPHYYSDYDFDWGQGTQVTVSS | good binding activity | –
h_Nb9: anti-human PD-L1 nanobody, VHH SEQ ID NO: 20 (protein, h_Nb9 VHH) VHH: DVQLQESGGGLVQPGGSLRLSCASSGSIFGLGVKGWYRQPPGNQREMVAQIISGGRISYADSVKGRFTISRDNAKNTVYLQMNSLKPEDTAVYYCNAWGPGQRNYWGRGTQVTVSS | good binding activity | –
h_Nb4: anti-human PD-L1 nanobody, VHH SEQ ID NO: 9 (protein, h_Nb4 VHH) VHH: DVQLQESGGGLVQAGGSLRLSCAAPSRMFSGYTMGWYRQAPGKQRELVAQIANGGFTDYIDSVKGRFSISRDTVLNMMYLQMNSLKPEDTAVYYCNLVLVNGIPTRNWGQGTQVTVSS | good binding activity | –
h_Nb1: anti-human PD-L1 nanobody, VHH SEQ ID NO: 1 (protein, h_Nb1 VHH) VHH: DVQLQESGGGLVQPGGSLRLSCAASGFTFSSYAMSWVRQAPGKGLEWVSDINSGGDNTDYADSVKGRFTISRDNAKNTLYLQMNSLKPEDTAVYYCARGPKLCFSSWGQGTQVTVSS | good binding activity | activity in blocking human PD-1/PD-L1 binding [2]: effectively block; IC50 activity in blocking human PD-1/PD-L1 binding, compared with KN035 [3]: comparable to those of the positive control antibody KN035; tumor inhibition rate [4]: 81.17%
h_Nb6: anti-human PD-L1 nanobody, VHH SEQ ID NO: 17 (protein, h_Nb6 VHH) VHH: DVQLQESGGGLAQPGGSLRLSCAASGFTFSSYAMSWARQAPGKGLEWVAGIYRGGSDTYYADSVKGRFTISRDNTKNTLYLQMNSLKPEDTALYYCIQGWGLGYANYDYWGQGTQVTVSS | good binding activity | –
h_Nb12: anti-human PD-L1 nanobody, VHH SEQ ID NO: 24 (protein, h_Nb12 VHH) VHH: DVQLQESGGGLVQAGGSLRLSCAASGRTFSSRAMGWFRQAPGKEREFVAAISGSGRNTYYADSVKGRFTISRDNAKNSVNLQMNSLKPEDTAVYYCNAAGGGITIATMTQRTQYDYWGQGTQVTVSS | good binding activity | –
KN035: positive control antibody (sequence from the IMGT database) (antibody, chains of the INN, looked up, V domains shown) VH: QVQLVESGGGLVQPGGSLRLSCAASGKMSSRRCMAWFRQAPGKERERVAKLLTTSGSTYLADSVKGRFTISRDNSKNTVYLQMNSLRAEDTAVYYCAADSFEDPTCTLVTSSGAFQYWGQGTLVTVSS | – | tumor inhibition rate [4]: 65.83%
h_Nb2: anti-human PD-L1 nanobody, VHH SEQ ID NO: 5 (protein, h_Nb2 VHH) VHH: DVQLQESGGGLVQPGGSLRLSCAASGFTFGDRWMYWLRQAPGKGLEWVSSINPAGRSTYYADSVKGRFTISRDNAKNTLYLQMNSLKSEDTAVYYCTKDPGGYQKGQGTQVTVSS | good binding activity | activity in blocking human PD-1/PD-L1 binding [2]: effectively block; in vitro activity compared with KN035 ([3]; PD-1/PD-L1 blocking): superior to that of KNO35; IC50 activity in blocking human PD-1/PD-L1 binding, compared with KN035 [3]: comparable to those of the positive control antibody KN035; tumor inhibition rate [4]: 85.14%
h_Nb2_G101Y: affinity-matured VHH of h_Nb2, SEQ ID NO: 92 (protein, h_Nb2_G101Y VHH) VHH: DVQLQESGGGLVQPGGSLRLSCAASGFTFGDRWMYWLRQAPGKGLEWVSSINPAGRSTYYADSVKGRFTISRDNAKNTLYLQMNSLKSEDTAVYYCTKDPGYYQKGQGTQVTVSS | – | Improved value of relative affinity [5]: 8.4837
